The test addresses T1, N46 (HIV-1).
T1 construct: Synthetic peptide from the gp41 N-terminal heptad repeat; Used at 8 uM in CD and 0.5 uM in the ELISA; also called NHR-peptide N46
The test is described as follows: competition ELISA: inhibition of six-helix bundle formation between N46 and C34-biotin (competitor), detected with mAb NC-1. On the technique in general: An ELISA detects its analyte on a solid surface through an enzyme-linked reagent.

B1: T-1249 (peptide)
peptide: WQEWEQKITALLEQAQIQQEKNEYELQKLDKWASLWEWF
notes: 39-mer hybrid polypeptide
What is called EC50 is the concentration at which the effect is half-maximal. A higher EC50 goes with a less potent agent. For the molecule B1, the EC50 came to 800 nM.

Source of the values: US20100040631A1 (NEW YORK BLOOD CENTER, published 2010).
